According to the nanobody polyreactivity screen of Harvey et al. (2022):

Test: yeast display, Sf9 membrane polyspecificity reagent, FACS + sequencing; frameworks hold sequencing errors
How it was run: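 Sorting gates, low and high (top ~1%), were placed on anti-HA fluorescence to track expression and on streptavidin fluorescence to track reagent binding. A clone's polyreactivity label is taken from the gate it came out of. The reagent was 10% biotinylated, detergent-solubilized Sf9 membrane, applied for 1 hour at 4 °C to galactose-induced yeast display cells.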

Sequence | polyreactivity (PSR sort gate)
QVQLVESGGGLVQAGGSLRLSCAASGSTFLSYAMGWYRQAPGKERELVAVISWSGVSTYYADSVKGRFTISRDNAKNTVYLQMNSLNPEDTEVYYCNTGHHYIRTYGYWGQGTQVTVSS | low polyreactivity
QVQLVESGGGLVQAGGSLRLSCAASGSTFLTKAMGWNRQAPGKERELVAAISRSGGSTYYADSVKGRFTISRDNAKNTVYLQMNSLKPEDTAVYYGAAYSWRYQAWEFGYWGQGTQVTVSS | high polyreactivity
QVQLVESGGGLVQAGGSLRLSCAASGSTFLTYAMGWYRQAAGKERELVAGISYSTGSTYYADSVKGRFTISRDNAKNTVYLQMNSLKPEDTAVYYCAADEWDGLWYYYYFNYEDWGQGTQVTVSS | low polyreactivity
QVQLVESGGGLVQAGGSLRLSCAASGSTFLTYAMGWYRQAPGKEREFVAAISSTGTGRTYYADSVKGRFTISRDNAKNTVYLQMNSLKPEDTAVYYCAADLYGTYDYWGQGTQVTVSS | low polyreactivity
QVQLVESGGGLVQAGGSLRLSCAASGSTFLTYAMGWYRQAPGKERELLAASTRSTSTYADSVKGRFTISRDNAKNTVYFQMNSLKPEDTAVYYCNVDSYFRWWYDEWGQGTQVTVSS | high polyreactivity
QVQLVESGGGLVQAGGSLRLSCAASGSTFLWNAMGWYRQAPGKERELVAAISYSGGSTYYADSVKGRFTISRDNAKNTVYLQMNSLKPEDTAVYYCAKEWFYDPYPPGYDYWGQGTQVTVSS | low polyreactivity
QVQLVESGGGLVQAGGSLRLSCAASGSTFLYNAMGWYRQAPWKERELVAAISWSGGSTYYADSVKGRFTISRDNAKNTVYLQMNSLKPEDTAVYYCAAEQRRFTGYDYWGQGTQVTVSS | high polyreactivity
QVQLVESGGGLVQAGGSLRLSCAASGSTFLYNTMGWYRPAPGKERELVAAITSAGSTNYADSVKGRFTISRDNAKNTVYLQMNSLKPEDTAVYYCAAVGPTSGARYTYDYWGQGTQVTVSS | low polyreactivity
QVQLVESGGGLVQAGGSLRLSCAASGSTFLYNTMGWYRQAPGKERELVATITSRGDRTYYADSVKGRFTISRDNAKNTVYLQMNSLNPEDTGVYYCARDYGPYLSPENPAPMDYWGQGTQVTVSS | low polyreactivity
QVQLVESGGGLVQAGGSLRLSCAASGSTFLYYAMGWYREAPGKERELVAVISWSGVSTYYADSVKGRFTISRDNAKNTVYLQMKSLKPEDTAVYYCNTGNHYIRTYGYWGQGTQVTVSS | low polyreactivity
QVQLVESGGGLVQAGGSLRLSCAASGSTFLYYAMGWYRQAPGKEREFVAAISISGGSTYYADSVKGRFTISRDNAKNTVYLQMNSLKPEDTAVYYCAARKKEYKPGNYWGQGTQVTVSS | low polyreactivity
QVQLVESGGGLVQAGGSLRLSCAASGSTFLYYAMGWYRQAPGKEREFVAAISKGSGRTYYADSVKGRFTISRDNAKNTVYLQLNSLKPEDTAVYYCAAAKWRGYPYQSDYWGQGTQVTVSS | high polyreactivity
QVQLVESGGGLVQAGGSLRLSCAASGSTFLYYAMGWYRQAPGKERQLVAAISGSGGSTYYADSVKGRFTISRDNAKNNVYLQMYSLKPEDTAVYYCNAVARRHGLGPYDYWGQGTQVTVSS | high polyreactivity
QVQLVESGGGLVQAGGSLRLSCAASGSTFLYYAMGWYRQEPGKERELVAAINWNGGSTYYADSVKGRFTISRDNAKNTVYLQMNSLKPEDTAVYYCNAYGISPYEYYYWGQGTQVTVSS | low polyreactivity
QVQLVESGGGLVQAGGSLRLSCAASGSTFLYYAMGWYTQAPGKERELVAAITVRGGNTYYADSVKGRFTISRDNAKNTVYLQMNSLKPEDTAVYYCAARAYYSFRYDYWGQGTQVTVSS | high polyreactivity
QVQLVESGGGLVQAGGSLRLSCAASGSTFLYYTMGWYRQAPGKERELVAAITGSGTSTYYADSVKGRFTISRDNAKNTVYLQMNSLKPEDTAVYYCAARGHGRLYYWGHGTQVTVSS | high polyreactivity
QVQLVESGGGLVQAGGSLRLSCAASGSTFLYYTMGWYRQAPGKERELVAAITNGGGSTYYADSVKGRFTISRDNAKNTVYLQMNSLKPEDTAVYYCNAPTVKYRLGYDYWGQGTQVTVSS | high polyreactivity
QVQLVESGGGLVQAGGSLRLSCAASGSTFLYYTMGWYRQAPGKERELVATISRDGSTKYADSVKGRFTISRDNAKITVYLQMNSLKPEDTAVYYCAAARDSIVYGQYDYWGQGTQVTVSS | low polyreactivity
QVQLVESGGGLVQAGGSLRLSCAASGSTFNANAMGWYRQAPGKERELVAAITAIGGSTYYADSVTGRFTISRDNAKNTVYLQMNSLKPEDTAVYYCAADFSYVYYLYDYWGQGTQVTVSS | low polyreactivity
QVQLVESGGGLVQAGGSLRLSCAASGSTFNDYAMGWYRQAPGKERELVASIRYSGGGTYYADSVKGRFTISRDNAKNTVYLQMNSLKPEDTAVYYCAKDTHLLNEHSGTSREYDYWGQGTQVTVSS | low polyreactivity

Sequence | polyreactivity (PSR sort gate)
QVQLVESGGGLVQAGGSLRLSCAASGSTFNEYTMGWYRQAPGKERELVAAIRATDGSTYYADSVKGRFTISRDNAKNTVYLQMNSLKPEDTAVYYCAADYYWNDYWGQGTQVTVSS | low polyreactivity
QVQLVESGGGLVQAGGSLRLSCAASGSTFNGYAMGWYRQAPGKERELVAAITSSGSRTYYADSVKGRFTISRDNAKNTVYLQMNSLKPVDTAVYYCNAGKLARTYFRSSSLSPGDYWGQGTQVTVSS | high polyreactivity
QVQLVESGGGLVQAGGSLRLSCAASGSTFNGYTMGWYRQAPGKEREFVATITFSDGSTYYADSVKGRFTISRDNAKNTVYLQMNSLKPEDTAVYYCNVDSPIGYDYWGQGTQVTVSS | low polyreactivity
QVQLVESGGGLVQAGGSLRLSCAASGSTFNINAMGWYRQAPGKERELVADITSGGSTNYADSVKGRFTISRDNAKNTVYLQMNSLKPEDTAVYYCNADVLYGDSYRGGYCGQGTQVTVSS | low polyreactivity
QVQLVESGGGLVQAGGSLRLSCAASGSTFNKYAMGWYRQAPGKEREFVAAITSSGGRTYYADSVKGRFTISRDNAKNTVYLQMNSLKPEDTAVYYCAARSYTYTAPIYGYWGQGTQVTVSS | high polyreactivity
QVQLVESGGGLVQAGGSLRLSCAASGSTFNKYTMGWYRQAPGKERELVAAITSGDSTYYADSVKGRFTISRDNAKNTVYLQMNSLKPEDTAVYYCAKSLRAYRHVIYGKPFYSWGQGTQVTVSS | low polyreactivity
QVQLVESGGGLVQAGGSLRLSCAASGSTFNLYAMGWYRQAPGKERELVASISRSGVSTYYADSVKGRFTISRDNAKNTVYLQMNSLKPEDTAVYYCAVDKVLYRLYPGMDYWGQGTQVTVSS | low polyreactivity
QVQLVESGGGLVQAGGSLRLSCAASGSTFNPYAMGWYRQAPGKERELVAAITWSSDDTYYADSVKGRFTISRDNAKNTVYLQMNSLKPEDTAVYYCAATTVTQWYTITVAYGYWGQGTQVTVSS | low polyreactivity
QVQLVESGGGLVQAGGSLRLSCAASGSTFNRYAMGWYRQAPGKERELVAAISWSGTRTYYADSVKGRFTISRDNAKNTVYLQMNSLKPEDTAVYYCAARRLYAGHQYDYWGQGTQVTVSS | high polyreactivity
QVQLVESGGGLVQAGGSLRLSCAASGSTFNSNAMGWYRQAPGKERELVAAINYSGGSTYYADSVKGRFTISRDNAKNTVYLQMNSLKPEDTAVYYCNKVYFDHYLSRVYYWGQVTQVTVSS | high polyreactivity
QVQLVESGGGLVQAGGSLRLSCAASGSTFNSYAMGWYRQAPGKESELVAAITSSGSRTRYADSVKGRFTISRDNAKNTVYLQMNSLKPEDTAVYYCAAVYRLKSGGVWRDSQFGYWGQGTQVTVSS | high polyreactivity
QVQLVESGGGLVQAGGSLRLSCAASGSTFNSYTMGWYRPAPGKERELVAAISWRGTSTYYADSVKGRFTISRDNAKNTVYLQMNSLKPEDTAVFYCAAAGRYRVLTGLVSSWKYWGQGTLVTVSS | high polyreactivity
QVQLVESGGGLVQAGGSLRLSCAASGSTFNTYAMGWYRQAPGKERELVAAITWRGGRTYYADSVKGRFTISRDNAKNTVYLQMNSLKPEDTAVYYCAARRTYYSRKPRFDYWGQGTQVTVSS | high polyreactivity
QVQLVESGGGLVQAGGSLRLSCAASGSTFNTYAMGWYRQAPGKERELVAAITWRGGRTYYADSVKGRFTISRDNAKNTVYLQMNSLKPEDTAVYYCNTLRPRLDGVYGYDYWGQGTQVTVSS | high polyreactivity
QVQLVESGGGLVQAGGSLRLSCAASGSTFNVNAMGWYRQAPGKERELVAAISSDGITNYADSVKRRFTISRDNAKNTVYLQMNSLKPEDTAVYYCNADWTDGDWADMDYWGQGTQVTVSS | low polyreactivity
QVQLVESGGGLVQAGGSLRLSCAASGSTFNWNAMGWYRQAPGKERELVAAITSSGARTRYADSVKGRFTISRDNAKNTVYLQMNSLKPEDTAVYYCAAYVYISPSGYYYWGQGTQVTVSS | high polyreactivity
QVQLVESGGGLVQAGGSLRLSCAASGSTFNYYAMGWDRQAPGTVRELVAAITRNGGRKYYADSVKGRFRLSRDNAKNTVYLQMNSLKPEETAVYYCATDTYSYRSIHDMGYWGQGTQVTVSS | high polyreactivity
QVQLVESGGGLVQAGGSLRLSCAASGSTFNYYAMGWYRQAPGKERELVAAITSSGTSTFYADSVKGRITISRDNAKNTVYLQMNSLKPEDTAVYYCAVDLYWSYFNGALGYRYYYWGQGTQVTVSS | high polyreactivity
QVQLVESGGGLVQAGGSLRLSCAASGSTFPANAMGWYRQAPGKERELVATISWSGGRTYYADSVKGRFTISRDNAKNTVYLQMNSLKPEDTAVYYCAKGYYWLSTYGDSRYGYWGQGTQVTVSS | high polyreactivity
QVQLVESGGGLVQAGGSLRLSCAASGSTFPAYAMGWYRQAPGKERELVAGISSGGRTYYADSVKGRFTISRDNAKNTVYLQMNSLKPEDTAVYYCAAFRFYWQRPDRYYYWGQGTQVTVSS | high polyreactivity
